Patent US20170002055A1, “Novel peptides and combination of peptides for use in immunotherapy against ovarian cancer and other cancers” (immatics biotechnologies GmbH, priority 2015, published 2017)

Each substance was assayed against HLA-A*02:01 (Homo sapiens, UniProt P04439, D140Y/D185E/D98H/E176V/E277Q/G131W/G231S/I119V/I121R/I166T/I218V/L300P/L318F/N151K/N90K/P208A/P217A/Q86G/Q94H/R138H/R169H/T345S) (assay: MHC binding assay (UV-ligand exchange, β2m ELISA, peptide exchange yield)). Settings: MHC class I binding score; binding to HLA-A*02:01 ranged by peptide exchange yield (UV-ligand exchange, β2m ELISA).
In short: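 Binding is expressed as peptide exchange yield: stabilized MHC complexes were quantified by β2m ELISA, with a 450 nm TMB read-out on streptavidin-coated plates. Complexes came from UV-ligand exchange, where UV irradiation cleaves a photolabile peptide so the candidate peptide can load.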

Substance | Peptide exchange
195 (GLFADLLPRL; listed as Homo sapiens) [compound 195] | “+++” (≧50 = +++)
262 (LLWGDLIWL; listed as Homo sapiens) [compound 262] | “+++” (≧50 = +++)
263 (LLVSNLDFGV; listed as Homo sapiens) [compound 263] | “+++” (≧50 = +++)
216 (NLWEDPYYL; listed as Homo sapiens) [compound 216] | “+++” (≧50 = +++)
243 (LLLNELPSV; listed as Homo sapiens) [compound 243] | “+++” (≧50 = +++)
16 (VLFQGQASL; listed as Homo sapiens) [compound 16] | “+++” (≧50 = +++)
285 (QLLHVGVTV; listed as Homo sapiens) [compound 285] | “+++” (≧50 = +++)
121 (GVVDPRAISVL; listed as Homo sapiens) [compound 121] | “++” (≧20% = ++)
256 (FLPPEHTIVYI; listed as Homo sapiens) [compound 256] | “+++” (≧50 = +++)
207 (GLTSTNAEV; listed as Homo sapiens) [compound 207] | “++” (≧20% = ++)
52 (FLLAHGLGFLL; listed as Homo sapiens) [compound 52] | “++++” (≧75% = ++++)
162 (YQQAQVPSV; listed as Homo sapiens) [compound 162] | “+++” (≧50 = +++)
296 (FMEGAIIYV; listed as Homo sapiens) [compound 296] | “+++” (≧50 = +++)
120 (ALLGIPLTLV; listed as Homo sapiens) [compound 120] | “+++” (≧50 = +++)
295 (VLDRESPNV; listed as Homo sapiens) [compound 295] | “+++” (≧50 = +++)
33 (VLLSLLEKV; listed as Homo sapiens) [compound 33] | “++” (≧20% = ++)

Substance | Peptide exchange
184 (YLMDINGKMWL; listed as Homo sapiens) [compound 184] | “+++” (≧50 = +++)
224 (TLIDAQWVL; listed as Homo sapiens) [compound 224] | “+++” (≧50 = +++)
204 (KIAENVEEV; listed as Homo sapiens) [compound 204] | “++” (≧20% = ++)
245 (SMIDDLLGV; listed as Homo sapiens) [compound 245] | “+++” (≧50 = +++)
267 (ALQDFLLSV; listed as Homo sapiens) [compound 267] | “+++” (≧50 = +++)
45 (SLWQDIPDV; listed as Homo sapiens) [compound 45] | “+++” (≧50 = +++)
219 (KLSDIGITV; listed as Homo sapiens) [compound 219] | “+++” (≧50 = +++)
101 (ILVGGGALATV; listed as Homo sapiens) [compound 101] | “+++” (≧50 = +++)
131 (FVPPVTVFPSL; listed as Homo sapiens) [compound 131] | “++” (≧20% = ++)
175 (YLFENISQL; listed as Homo sapiens) [compound 175] | “+++” (≧50 = +++)
277 (LLPPLESLATV; listed as Homo sapiens) [compound 277] | “++” (≧20% = ++)
41 (SLMPHIPGL; listed as Homo sapiens) [compound 41] | “+++” (≧50 = +++)
281 (ILRESTEEL; listed as Homo sapiens) [compound 281] | “+++” (≧50 = +++)
238 (YLISFQTHI; listed as Homo sapiens) [compound 238] | “+++” (≧50 = +++)
91 (IMQDFPAEIFL; listed as Homo sapiens) [compound 91] | “++++” (≧75% = ++++)

Continued, values first:

Peptide exchange | Substance
“+++” (≧50 = +++) | 427 (ALLPLSPYL; listed as Homo sapiens) [compound 427]
“++++” (≧75% = ++++) | 621 (VLMDRLPSLL; listed as Homo sapiens) [compound 621]
“+++” (≧50 = +++) | 481 (GLIEDYEALL; listed as Homo sapiens) [compound 481]
“+++” (≧50 = +++) | 550 (FLYDEIEAEVNL; listed as Homo sapiens) [compound 550]
“+++” (≧50 = +++) | 332 (YLISELEAA; listed as Homo sapiens) [compound 332]
“+++” (≧50 = +++) | 577 (VMFEDGVLMRL; listed as Homo sapiens) [compound 577]
“+++” (≧50 = +++) | 304 (MTLGQIYYL; listed as Homo sapiens) [compound 304]
“+++” (≧50 = +++) | 610 (LLAPTPYIIGV; listed as Homo sapiens) [compound 610]
“+++” (≧50 = +++) | 465 (QLCDLNAEL; listed as Homo sapiens) [compound 465]
“++” (≧20% = ++) | 429 (GLVNDLARV; listed as Homo sapiens) [compound 429]
“++” (≧20% = ++) | 381 (FIDEAYVEV; listed as Homo sapiens) [compound 381]
“+++” (≧50 = +++) | 437 (SMAPGLVIQAV; listed as Homo sapiens) [compound 437]
“++” (≧20% = ++) | 376 (AMFESSQNVLL; listed as Homo sapiens) [compound 376]
“+++” (≧50 = +++) | 352 (SLLELLHIYV; listed as Homo sapiens) [compound 352]
“+++” (≧50 = +++) | 351 (SLIPNLRNV; listed as Homo sapiens) [compound 351]
“+++” (≧50 = +++) | 369 (GLFPEHLIDV; listed as Homo sapiens) [compound 369]
“++” (≧20% = ++) | 491 (GLNDRSDAV; listed as Homo sapiens) [compound 491]
“++” (≧20% = ++) | 505 (SLAPGDVVRQV; listed as Homo sapiens) [compound 505]
“++” (≧20% = ++) | 409 (LLDAMNYHL; listed as Homo sapiens) [compound 409]
“+++” (≧50 = +++) | 334 (TLTKVLVAL; listed as Homo sapiens) [compound 334]
“+++” (≧50 = +++) | 364 (LLQNEQFEL; listed as Homo sapiens) [compound 364]
“+++” (≧50 = +++) | 564 (TVTNAVVTV; listed as Homo sapiens) [compound 564]
“+++” (≧50 = +++) | 324 (FLYDEIEAEV; listed as Homo sapiens) [compound 324]
“+++” (≧50 = +++) | 312 (IISDLTIAL; listed as Homo sapiens) [compound 312]
“++++” (≧75% = ++++) | 371 (FLQAHLHTA; listed as Homo sapiens) [compound 371]
“++++” (≧75% = ++++) | 303 (AILPQLFMV; listed as Homo sapiens) [compound 303]
“+++” (≧50 = +++) | 493 (GLLGEKTQDLIGV; listed as Homo sapiens) [compound 493]
“+++” (≧50 = +++) | 614 (LLLPDQPPYHL; listed as Homo sapiens) [compound 614]
“+++” (≧50 = +++) | 391 (YVYPQRLNFV; listed as Homo sapiens) [compound 391]
“+++” (≧50 = +++) | 407 (YLMDLINFL; listed as Homo sapiens) [compound 407]
